B1: N_MsmK (amino acids 1 to 234), His-tagged (domain or fragment, Streptococcus suis, UniProt A0A0H3N1P0 1-234, looked up)
chain: MVQLNLKNIYKKYPNSEHYSVEDFNLDIKDKEFIVFVGPSGCGKSTTLRMIAGLEDITEGEAYIDGVLMNDVAPKDRDIAMVFQNYALYPHMTVFDNMAFGLKLRKYSKDEIKKRVEEAAQILGLTEFLERKPADLSGGQRQRVAMGRAIVRDAKVFLMDEPLSNLDAKLRVSMRTEIAKIHRRIGATTIYVTHDQTEAMTLADRIVIMSATKNPAGTGTIGRIEQIGSPEELY
notes: MsmK of Streptococcus suis, N-terminal domain, aa 1 to 234 of 378; also called N terminus of MsmK; N-terminal domain of MsmK; source: expressed and purified
B2: His-tagged FtsZ (filamentous temperature-sensitive protein Z) (natural protein, Streptococcus suis, UniProt A0A0H3MXZ7 1-409, looked up)
chain: MAFSFEAAASHGAVIKVIGVGGGGGNAINRMIEEGVAGVEFIAANTDVQALSSSKAETVIQLGPKLTRGLGAGGQPEVGRKAAEESEEALTNVLTGADMVFITAGMGGGSGTGAAPVIARIAKNLGALTVAVVTRPFGFEGNKRGNFAIEGIEGLREQVDTLLIISNNNLLEIVDKKTPLLEALSEADNVLRQGVQGITDLITNPGLINLDFADVKTVMENKGNALMGIGIGTGEDRVIEAARKAIYSPLLETTIDGAEDVIVNVTGGYDMTLTEAEDASEIVNQAAGQGVNIWLGTSIDETMKDEIRVTVVATGVRQDTADKPARHRTEAVSPRPSHRFDHSVASAPTRGAAQQTEAPKASAFGEWDLRRENLIRPTDTEPTSTVSVEKFTMDQDEDELDTPPFFRNR
notes: FtsZ, tubulin-like cell division protein of Streptococcus suis; The His tag is named for the SPR; also called His-FtsZ; source: purified
B3: His-tagged MsmK (multiple sugar metabolism protein K), full length (enzyme, Streptococcus suis, UniProt A0A0H3N1P0 1-376, looked up)
chain: MVQLNLKNIYKKYPNSEHYSVEDFNLDIKDKEFIVFVGPSGCGKSTTLRMIAGLEDITEGEAYIDGVLMNDVAPKDRDIAMVFQNYALYPHMTVFDNMAFGLKLRKYSKDEIKKRVEEAAQILGLTEFLERKPADLSGGQRQRVAMGRAIVRDAKVFLMDEPLSNLDAKLRVSMRTEIAKIHRRIGATTIYVTHDQTEAMTLADRIVIMSATKNPAGTGTIGRIEQIGSPEELYNRPVNKFVASFIGSPAMNFFTVTLQDGVLVGDGFKVELPEGRRKHLEEKGYNGKSFTLGIRPEDIKASQLELDTYPSSIVEAEVVVSELLGAETMLYSKVGSTEFVSRVDARDYHNPGDKVRLTFNLNKAHFFDDETSKAIV
notes: MsmK, ATPase of the ABC-type carbohydrate transport system of Streptococcus suis; 378 amino acid residues, open reading frame of 1,137 bp; also called full-length MsmK; source: expressed and purified

Columns and labels:
[1] = target: B2; experiment: SPR; His-tagged FtsZ immobilized onto sensor chips as the ligand; MsmK constructs in concentration series as analytes; buffer without protein as negative control; conditions: both partners purified
[2] = target: the molecule itself; experiment: transmission electron microscopy; FtsZ (0.6 μM) incubated with 2 mM GTP and/or 1 mM ATP in buffer P, 10 min at 37°C

Binder	Kd [1]	koff [1]	kon [1]	binding result [2]
B1	332 nM	0.000332 s⁻¹	1000 M⁻¹ s⁻¹	–
B2	–	–	–	binds
B3	≤ 10 nM	≤ 1e-05 s⁻¹	1000 M⁻¹ s⁻¹	–
